Data as given in PMC3942486, “The Ansamycin Antibiotic, Rifamycin SV, Inhibits BCL6 Transcriptional Repression and Forms a Complex with the BCL6-BTB/POZ Domain” (PLoS ONE, 2014).

Biological target: BCL6-POZ domain (residues 7 to 128 of human BCL6, C8Q, C67R, C84N) (UniProt P41182)
Test: fluorescence polarisation

Row | Kd [µM] | Substance
1 | 43 | wild-type SMRT peptide, labelled with BODIPY TMR H1426(homophenylalanine)
2 | 41 | wild-type SMRT peptide, labelled with BODIPY TMR H1426(styrylalanine)
